# Test results as given in patent US20070111265A1 (published 2007).
# B1: PGC1α-(1+2), human PGC1α fragment (residues 1-220) containing both LXXLL motifs, 6xHis-GST fusion protein (other)
# chain: MAWDMCNQDSESVWSDIECAALVGEDQPLCPDLPELDLSELDVNDLDTDSFLGGLKWCSDQSEIISNQYNNEPSNIFEKIDEENEANLLAVLTETLDSLPVDEDGLPSFDALTDGDVTTDNEASPSSMPDGTPPPQEAEEPSLLKKLLLAPANTQLSYNECSGLSTQNHANHNHRIRTNPAIVKTENSWSNKAKSICQQQKPQRRPCSELLKYLTTNDDP
# What was measured:
# [1] = target: T1, human MR LBD (residues 727-984) containing a C808S mutation, 6xHis-GST fusion protein (;human, UniProt P08235 727-984); assay: AlphaScreen peptide competition; corticosterone
# T1 chain: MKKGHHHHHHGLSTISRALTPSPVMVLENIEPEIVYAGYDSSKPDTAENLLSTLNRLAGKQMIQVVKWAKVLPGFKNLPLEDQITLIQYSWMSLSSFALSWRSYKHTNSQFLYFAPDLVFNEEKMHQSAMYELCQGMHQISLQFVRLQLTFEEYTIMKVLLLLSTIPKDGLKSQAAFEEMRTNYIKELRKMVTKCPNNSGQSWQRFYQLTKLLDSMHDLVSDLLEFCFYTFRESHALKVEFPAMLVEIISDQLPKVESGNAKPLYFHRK
# [2] = target: T1, human MR LBD (residues 727-984) …; assay: AlphaScreen competition; corticosterone
Binder,IC50 [1] [nM],IC50 [2] [nM]
AEEPSLLKKLLLAPA [unlabeled PGC1α-1 peptide],900,
B1,,40
RRPCSELLKYLTTND [unlabeled PGC1α-2 peptide],1100,
